Measurements from patent publication US20250186503A1, “METHODS AND COMBINATIONS FOR TREATMENT AND T CELL MODULATION” (Juno Therapeutics, Inc., priority 2018, published 2025).

Test system: anti-BCMA CARs
Assay: Binding of BCMA-Fc fusion protein to CAR-expressing T cells (flow cytometry)
Description: The clone encoding the human BCMA-Fc fusion construct with the N-terminal CD33 leader sequence (SEQ ID NO: 21) was inserted into an expression vector and expressed in HEK 293 cells. The resulting BCMA-Fc fusion protein was determined to have a purity of greater than 95% as assessed by gel permeation chromatography.

B1: BCMA-Fc fusion protein: extracellular domain of human BCMA and a human IgG1 Fc connected with a linker (SEQ ID NO: 22) (protein)
chain: MPLLLLLPLLWAGALAMLQMAGQCSQNEYFDSLLHACIPCQLRCSSNTPPLTCQRYCNASVTNSVKGTNAGGGGSPKSSDKTHTCPPCPAPEAEGAPSVFLFPPKPKDTLMISRTPEVTCVVVDVSHEDPEVKFNWYVDGVEVHNAKTKPREEQYNSTYRVVSVLTVLHQDWLNGKEYKCKVSNKALPSSIEKTISKAKGQPREPQVYTLPPSRDELTKNQVSLTCLVKGFYPSDIAVEWESNGQPENNYKTTPPVLDSDGSFFLYSKLTVDKSRWQQGNVFSCSVMHEALHNHYTQKSLSLSPGK
modifications: BCMA-Fc construct
binding to anti-BCMA CAR expressing T cells: specifically bound
